We go through 3 molecules from article PMC3965549, “Evidence for LINC1-SUN Associations at the Plant Nuclear Periphery” (PLoS ONE, 2014).

In this experiment the target is T1, AtLINC1-YFP (Arabidopsis, UniProt F4HRT5 1-1132).
T1 construct: Little Nuclei 1 (LINC1) of Arabidopsis; also called Little Nuclei 1
T1 sequence (looked up): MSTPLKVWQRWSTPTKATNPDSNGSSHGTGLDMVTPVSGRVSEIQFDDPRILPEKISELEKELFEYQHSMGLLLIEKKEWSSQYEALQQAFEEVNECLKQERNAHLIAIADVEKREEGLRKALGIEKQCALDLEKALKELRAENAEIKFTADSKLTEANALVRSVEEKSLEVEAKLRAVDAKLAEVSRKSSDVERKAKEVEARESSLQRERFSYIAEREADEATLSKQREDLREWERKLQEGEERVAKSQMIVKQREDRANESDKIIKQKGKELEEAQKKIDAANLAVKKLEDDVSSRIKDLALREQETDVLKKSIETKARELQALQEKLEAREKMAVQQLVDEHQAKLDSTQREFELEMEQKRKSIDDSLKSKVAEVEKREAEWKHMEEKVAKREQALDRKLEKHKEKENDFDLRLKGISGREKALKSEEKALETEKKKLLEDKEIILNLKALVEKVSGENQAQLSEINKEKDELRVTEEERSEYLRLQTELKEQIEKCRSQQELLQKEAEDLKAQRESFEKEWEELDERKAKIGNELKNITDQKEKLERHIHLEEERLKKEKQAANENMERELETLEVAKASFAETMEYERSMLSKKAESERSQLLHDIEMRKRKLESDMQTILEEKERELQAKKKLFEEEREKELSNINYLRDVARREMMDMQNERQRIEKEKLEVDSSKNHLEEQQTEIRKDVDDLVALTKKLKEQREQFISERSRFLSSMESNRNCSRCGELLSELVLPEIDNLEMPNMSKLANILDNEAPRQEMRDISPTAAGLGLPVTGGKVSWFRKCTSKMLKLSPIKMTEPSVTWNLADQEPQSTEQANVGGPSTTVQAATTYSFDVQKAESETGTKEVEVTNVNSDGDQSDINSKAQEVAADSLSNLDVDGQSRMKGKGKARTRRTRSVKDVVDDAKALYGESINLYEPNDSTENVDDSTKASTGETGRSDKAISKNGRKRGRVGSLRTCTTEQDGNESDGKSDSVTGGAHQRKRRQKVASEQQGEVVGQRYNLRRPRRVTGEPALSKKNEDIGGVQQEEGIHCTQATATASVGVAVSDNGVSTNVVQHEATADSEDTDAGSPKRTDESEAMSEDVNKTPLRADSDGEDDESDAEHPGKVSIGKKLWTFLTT
The experiment is described as follows: FRET or BRET; acceptor photobleaching FRET (apFRET) in N. benthamiana leaf cells 3 days after infiltration; CFP donor on the SUN constructs, YFP acceptor on AtLINC1; YFP bleached in a constant ROI; pre-bleach fluorescence as internal negative control; about 35 NE per sample. To be noted: partners not purified.

B1: AtSUN1-CFP (natural protein, Arabidopsis, UniProt Q9FF75 1-471, looked up)
chain: MSASTVSITANTAAATRRTPILAGEKKSNFDYPQSESLANGGVGEAGGTSRDLSRGEATLDRSQGQDLGPVTRRSVSAATGTNTTATQRRTRKVATPKSEKARWKTVVRIFAKQLGALLIIVGLIQLTRKMILKASSPSSPISSYETEMAFSGLESRIAEVDGLVKATTNSMQVQVELLDKKMEREAKVLRQEIERKASAFQSELKKIESRTESLEKSVDEVNAKPWVTKDELERIYEELKKGNVDDSAFSEISIDELRAYARDIMEKEIEKHAADGLGRVDYALASGGAFVMEHSDPYLVGKGSSWFATTMRRAHTNAVKMLSPSFGEPGQCFPLKGSEGYVQIRLRGPIIPEAFTLEHVAKSVAYDRSSAPKDCRVSGSLQGPESSAETENMQLLTEFTYDLDRSNAQTFNILESSSSGLIDTVRLDFTSNHGSDSHTCIYRFRVHGRAPDPVPVVGTNLDQDSSPESE
notes: AtSUN1, Sad1/UNC84 domain protein 1 of Arabidopsis; also called full length AtSUN1; source: Nicotiana benthamiana leaves, transient expression by A. tumefaciens GV3101 infiltration (pK7CWG2), in living cells; not shown: CFP, C-terminal, kept
Take B1: the “FRET efficiency (EF)” value was determined as 1.85%.

B2: AtSUN2-CFP (natural protein, Arabidopsis, UniProt Q9SG79 1-455, looked up)
chain: MSASTVSITASPRTIRRTPVLSGEKKSNFDFPPSESHANAAIGESSAGTNKDLIRAEAAGERSNTYDVGPVTRKSGSTATGTNTTTTQRRTRKSQGNKIDRGKWKTVVRVFAKQFGALLLLVGLIQLIRKLTLKDSSLSSSNFPIETEMVLSELESRISAVDGLVKTTTKMMQVQVEFLDKKMDSESRALRQTIDSTSSVLHSELKKVESKTERLQVSVDELNAKPLVSREELERVYEELKKGKVGDSDVNIDKLRAYARDIVEKEIGKHVADGLGRVDYALASGGAFVMGHSDPFLVGNGRNWFGTSRRRVHSKAVKMLTPSFGEPGQCFPLKGSNGYVLVRLRAPIIPEAVTLEHVSKAVAYDRSSAPKDCRVSGWLGDIDMETETMPLLTEFSYDLDRSNAQTFDIADSAHSGLVNTVRLDFNSNHGSSSHTCIYRFRVHGRELDSVSVAHA
notes: AtSUN2, Sad1/UNC84 domain protein 2 of Arabidopsis; also called full length AtSUN2; source: Nicotiana benthamiana leaves, transient expression by A. tumefaciens GV3101 infiltration (pK7CWG2), in living cells; not shown: CFP, C-terminal, kept
For B2, the “FRET efficiency (EF)” value is 1.9%.

B3: AtSUN2^1–106-CFP (domain or fragment, Arabidopsis, UniProt Q9SG79 1-106, looked up)
chain: MSASTVSITASPRTIRRTPVLSGEKKSNFDFPPSESHANAAIGESSAGTNKDLIRAEAAGERSNTYDVGPVTRKSGSTATGTNTTTTQRRTRKSQGNKIDRGKWKT
notes: N-terminus of AtSUN2 of Arabidopsis: the first 318 bp (106 aa) of the CDS; also called SUN2 N-terminus; AtSUN2 N-terminus; source: Nicotiana benthamiana leaves, transient expression by A. tumefaciens GV3101 infiltration (pK7CWG2), in living cells; not shown: CFP, C-terminal, kept
As for B3, the “FRET efficiency (EF)” value worked out at 1.29%.
